Source: paper doi:10.1101/2025.09.14.676084, “A validated antibody toolbox for ALS research” (bioRxiv, 2025)

Target: T1, PFN1 (Homo sapiens (assumed; ALS risk gene …, UniProt P07737)
T1 construct: PFN1, the protein encoded by the ALS risk gene PFN1; Surmised: endogenous protein in the lysate of a human cell line, as in the YCharOS workflow; also called profilin-1 (protein encoded by the ALS risk gene PFN1)
Assay: immunoprecipitation, detected by immunoblot; the antibody was used to immunoprecipitate its target; counted as successful when the target protein was specifically enriched relative to the starting material, confirmed by immunoblot of the immunoprecipitated protein
Conditions: one partner purified

T1 sequence (P07737 whole entry): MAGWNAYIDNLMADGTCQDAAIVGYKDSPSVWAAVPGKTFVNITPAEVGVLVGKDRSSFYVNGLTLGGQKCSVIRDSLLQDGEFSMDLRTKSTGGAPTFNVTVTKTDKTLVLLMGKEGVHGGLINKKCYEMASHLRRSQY

B1: scFv against PFN1 (recombinant single-chain variable fragment antibody generated by the Structural Genomics Consortium) (scFv, V domains shown)
VH: EVQLLESGGGLVQPGGSLRLSCAASGFTFYSSYMYWVRQAPGKGLEWVSSISGYGGYTYYADSVKGRFTISRDNSKNTLYLQMNSLRAEDTAVYYCARWDGYMDYWGQGTLVTVSS
VL: DIQMTQSPSSLSASVGDRVTITCRASQSISSYLNWYQQKPGKAPKLLIYAASSLQSGVPSRFSGSGSGTDFTLTISSLQPEDFATYYCQQYWDYGLPTFGQGTKLEIK
notes: selected by phage display against recombinant biotinylated antigen; plasmid deposited at Addgene (id not given); also called the scFv against PFN1; custom scFv antibody
Question: Does B1 bind?
Answer: binds
